Positions of bridges follow the written chain, without caps; N, C: chain ends. Chains are numbered I, II in the order given. No end group written: not given here.
Target: the receptor on THP-1 cells
Experiment: cell-based or functional assay

B1: recombinant human relaxin analog 800814 (ligand)
chain 1: DSWMEEVIKLCGRDLVRAQIAICGMSTWS
chain 2: DLYSALANKCCHVGCTKRSLARFC
modifications: disulfide I:23-II:24; also: two more disulfides among A10, A11, A15 and B11
**Q.** B1 was tested. Which EC50 (ng/ml) of cAMP induced in THP-1 cells (cAMP ELISA) did it give?
**A.** 1.5 ng/mL
